Key:
protein A [1] = biological target: protein A (UniProt P38507); experiment: phage ELISA on coated protein A; heat/cool assay, % of untreated sample (n = 2)
protein A [2] = biological target: protein A (UniProt P38507); experiment: phage ELISA on coated protein A; heat/cool assay, % of untreated sample
protein A [3] = biological target: protein A (UniProt P38507); experiment: phage ELISA on coated protein A; signal after 80 C 10 min then 4 C 10 min as % of the untreated sample (heat/cool assay)

DP47 VH with CDR2 of HEL4, sequence (VH): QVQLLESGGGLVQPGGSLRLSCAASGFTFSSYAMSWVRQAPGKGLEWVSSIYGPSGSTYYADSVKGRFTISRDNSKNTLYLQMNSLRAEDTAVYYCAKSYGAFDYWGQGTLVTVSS

**Q.** Which Retained binding to protein A (%) (protein A [1]) does the source give for DP47 VH SA_31/33_DD here?
**A.** 52%

**Q.** How did the Retained binding to protein A (protein A [2]) turn out when DP47 VH SYA31-33DED was run?
**A.** 67%

**Q.** What about the Retained binding to protein A (%) (protein A [1]) of the same substance?
**A.** 69%

**Q.** Which Retained binding to protein A (%) (protein A [1]) does the source give for DP47 VH SYA_31-33_DDD here?
**A.** 66%

**Q.** For DP47 VH SY_31/32_DD, which Retained binding to protein A (%) (protein A [1]) is on record?
**A.** 62%

**Q.** How did the Retained binding to protein A (%) (protein A [1]) turn out when DP47 VH SY_31/32_DE was run?
**A.** 50%

**Q.** How did the Retained binding to protein A (%) (protein A [1]) turn out when DP47 VH YA_32/33_DD was run?
**A.** 64%

**Q.** Which Retained binding to protein A (%) (protein A [1]) does the source give for DP47 VH YA_32/33_ED here?
**A.** 59%

**Q.** How did the Retained binding to protein A (protein A [3]) turn out when DP47 VH with CDR2 of HEL4 was run?
**A.** 4%

**Q.** For DP47 VH with CDR3 of HEL4, which Retained binding to protein A (protein A [3]) is on record?
**A.** 3%

— patent US20120207673A1
